Changes are numbered by the printed parent chain. Values belong to the binder of their own block, whether it stands above or below them.
Experiments:
[1] = target: T1, mouse ROR1 over-expressed on CHO cells (CHO-mouse ROR1) (mouse, UniProt Q9Z139 30-937); assay: flow cytometry on CHO-S cells transiently over-expressing mouse ROR1, FITC anti-human Fc detection, MFI ratio to 2nd Ab alone
T1 construct: whole, on cells; also called cell surface-expressed mouse ROR1
Text: (§1) For this experiment, using cell lines (FIG. 5 and FIG. 7, respectively) transiently (CHO-human ROR1, CHO-human ROR2, CHO-mouse ROR1) or stably (MC38-human ROR1) transfected with ROR1 gene to achieve artificial over-expression of ROR1 protein, an ROR1-expressing cell line (JeKo-1, Mino) (FIG. 6), a non ROR1-expressing cell line (MCF7) (FIG. 6) and a FACSCalibur (BD Biosciences) device was used to measure the degree to which anti-ROR1 antibody and ROR1 were bound, as follows. […] JeKo-1, Mino, CHO-human ROR1, CHO-mouse ROR1 and MC38-human ROR1 are all cell lines which express human ROR1 or mouse ROR1.
(§2) Specifically, after dissociating each cell line and washing in PBS, the number of cells was counted and adjusted to 2×10⁵ cells/200 PBS. Then the respective ROR1 monoclonal antibodies prepared in Embodiment 3 were diluted 5 times from 10 /mL or 10 /mL, then reacted for 1 hour at 4° C. […] After reacting the cells were washed in PBS and analyzed using a FACSCalibur device. […] The shifted readings for the respective experimental groups treated with ROR1 monoclonal antibody were compared against the shifted reading for the control group (MFI Ratio: MFI of anti-ROR1/MFI of 2nd Ab).

[2] = target: T2, recombinant mouse ROR1 protein (Acrobiosystems, RO1-M5221) (mouse, UniProt Q9Z139 30-403); assay: ELISA, wells coated with recombinant mouse ROR1 protein, IgG titrated, HRP anti-Fab detection, OD (450-650nm)
T2 construct: Bought protein; also called mouse ROR1 antigen
T2 sequence (Q9Z139 30-403 limits assumed): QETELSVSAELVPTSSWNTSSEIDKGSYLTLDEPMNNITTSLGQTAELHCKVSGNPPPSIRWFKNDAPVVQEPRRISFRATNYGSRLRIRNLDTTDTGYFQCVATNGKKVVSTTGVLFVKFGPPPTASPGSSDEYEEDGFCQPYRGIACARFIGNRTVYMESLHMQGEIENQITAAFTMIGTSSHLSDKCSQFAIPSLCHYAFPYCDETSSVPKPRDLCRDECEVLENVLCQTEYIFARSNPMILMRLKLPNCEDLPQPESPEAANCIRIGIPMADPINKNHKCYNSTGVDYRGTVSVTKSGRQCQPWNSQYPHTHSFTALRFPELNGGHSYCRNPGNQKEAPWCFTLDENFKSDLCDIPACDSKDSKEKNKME
Protocol: (§3) Anti-ROR1 antibody antigen binding affinity was assessed using an ELISA-based solution binding assay. Specifically, a 96-well microtiter plate (Nunc-Immuno Plates), NUNC) was coated for 16 hours at 4° C. with the ROR1 protein described below at a concentration of 1 in PBS solution, and non-specific binding sites were blocked for 2 hours with 3% BSA (bovine serum albumin). Here, the ROR1 protein used was, in the case of human ROR1, the ROR1-Fc or recombinant human ROR1-His (Sino Biological, 13968-H08H) of Embodiment 1. The ROR1-His used in ELISA, as stated in the above sentence, was a protein from the Sino Biological company (13968-H08H), and the ROR1-His of Embodiment 1 or recombinant mouse ROR1 protein was used (Acrobiosystems, RO1-M5221-100 )
(§4) Subsequently, the anti-ROR1 antibodies prepared in Embodiment 3 were added at the concentrations stated in FIG. 2 to a 96-well microtiter plate, and binding capacity was analyzed using ELISA as follows. Specifically, after incubating for 2 hours, the plate was washed 5 times with PBS containing 0.05% Tween 20, then HRP-conjugated Fab multiclonal antibody reagent (Perce, 31414) was diluted to 1:10,000 and placed in the washed microtiter plate. After reacting for 1 hour at 37° C., the ROR1 antibodies bonded to the plate were detected. After the reaction, color development was performed using TMB (Tetramethylbenzidine, Sigma, T0440). The enzymatic reaction was stopped using 0.5 mol/L sulfuric acid, and absorbance at 450 nm and 650 nm was measured (450 nm-650 nm) using a micro plate reader (Molecular Device)

[3] = target: T3, recombinant human ROR1-His (Sino Biological, 13968-H08H) (human, UniProt Q01973 30-406); assay: BLI (Octet), ROR1-His on Anti-Penta-His or AR2G biosensor, IgG 30 to 0.021 nM, 1:1 fit
T3 construct: extracellular domain; Bought protein; also called ROR1-HIS protein; not shown: His tag
T3 sequence (Q01973 30-406): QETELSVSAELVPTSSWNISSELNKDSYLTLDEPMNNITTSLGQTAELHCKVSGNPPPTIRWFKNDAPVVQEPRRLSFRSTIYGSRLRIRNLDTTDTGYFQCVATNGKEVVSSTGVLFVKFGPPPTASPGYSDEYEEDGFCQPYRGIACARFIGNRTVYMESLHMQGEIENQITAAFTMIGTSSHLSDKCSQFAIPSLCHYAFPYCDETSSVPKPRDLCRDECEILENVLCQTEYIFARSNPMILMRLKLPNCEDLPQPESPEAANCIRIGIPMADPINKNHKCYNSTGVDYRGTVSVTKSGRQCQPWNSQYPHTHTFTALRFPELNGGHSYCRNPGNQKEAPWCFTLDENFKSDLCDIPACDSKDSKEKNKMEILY
Protocol: A 96-well black microplate (greiner bio one) was mounted on a biosensor tray case, and 200 10×KB or DW was added to each of 8 wells. Then Anti Penta His biosensors or 8 AR2G biosensors (ForteBio, USA) were inserted to hydrate for 10 minutes. 600 of the assay samples were diluted 2-fold or 3-fold to the appropriate assay concentrations, using 1×KB or 10×KB to 30 to 0.021 nM. To immobilize the antigen, recombinant human ROR1-His (Sino Biological, 13968-H08H) was diluted to 1 /ML with 10×KB or Sodium Acetate pH5 buffer. Immobilization was fixed at a threshold of 0.3 nm in the loading step. The association assay was carried out for 3 to 10 minutes, and the dissociation assay was carried out for 20 minutes. According to the Octet program template, the buffer was placed in a new 96-well black microplate according to order. As Baseline1, 200 10×KB or DW was placed. Then 200 each of 1 /mL of the antigen to be loaded, the ROR1-HIS protein, was added. As Baseline2, 200 10×KB or 1×KB was placed. Then to each well 30 to 0.021 nM of the diluted antibody and 200 each of 10×KB buffer or 1×KB corresponding to a reference blank was added. The temperature of the test plate was fixed at 30° C. After all of the samples were introduced, the equipment was started, and after the assay was completed, results were uploaded to the Octet Analysis 90 software, with KD values analyzed through 1:1 fitting. By obtaining KD values through the Octet assay method, it was confirmed that the anti-ROR1 antibody had strong binding potential to ROR1 antigen.

[4] = target: T3, recombinant human ROR1-His (Sino …); assay: ELISA, wells coated with human ROR1 protein (sheet: 'human ROR1'; text: ROR1-Fc or ROR1-His), IgG titrated, HRP anti-Fab detection, OD (450-650nm)
Protocol: as §3, §4

[5] = target: T4, human ROR1 expressed on the cell surface (human, UniProt Q01973 30-937); assay: flow cytometry on MC38-human ROR1 cells, IgG titrated, FITC anti-human Fc detection, MFI ratio to 2nd Ab alone; log axis whose first tick is printed 0
T4 construct: whole, on cells; also called cell surface-expressed ROR1 antigen; ROR1 on JeKo-1, Mino, CHO-human ROR1, MC38-human ROR1 and other cancer cell lines
T4 sequence (Q01973 30-937): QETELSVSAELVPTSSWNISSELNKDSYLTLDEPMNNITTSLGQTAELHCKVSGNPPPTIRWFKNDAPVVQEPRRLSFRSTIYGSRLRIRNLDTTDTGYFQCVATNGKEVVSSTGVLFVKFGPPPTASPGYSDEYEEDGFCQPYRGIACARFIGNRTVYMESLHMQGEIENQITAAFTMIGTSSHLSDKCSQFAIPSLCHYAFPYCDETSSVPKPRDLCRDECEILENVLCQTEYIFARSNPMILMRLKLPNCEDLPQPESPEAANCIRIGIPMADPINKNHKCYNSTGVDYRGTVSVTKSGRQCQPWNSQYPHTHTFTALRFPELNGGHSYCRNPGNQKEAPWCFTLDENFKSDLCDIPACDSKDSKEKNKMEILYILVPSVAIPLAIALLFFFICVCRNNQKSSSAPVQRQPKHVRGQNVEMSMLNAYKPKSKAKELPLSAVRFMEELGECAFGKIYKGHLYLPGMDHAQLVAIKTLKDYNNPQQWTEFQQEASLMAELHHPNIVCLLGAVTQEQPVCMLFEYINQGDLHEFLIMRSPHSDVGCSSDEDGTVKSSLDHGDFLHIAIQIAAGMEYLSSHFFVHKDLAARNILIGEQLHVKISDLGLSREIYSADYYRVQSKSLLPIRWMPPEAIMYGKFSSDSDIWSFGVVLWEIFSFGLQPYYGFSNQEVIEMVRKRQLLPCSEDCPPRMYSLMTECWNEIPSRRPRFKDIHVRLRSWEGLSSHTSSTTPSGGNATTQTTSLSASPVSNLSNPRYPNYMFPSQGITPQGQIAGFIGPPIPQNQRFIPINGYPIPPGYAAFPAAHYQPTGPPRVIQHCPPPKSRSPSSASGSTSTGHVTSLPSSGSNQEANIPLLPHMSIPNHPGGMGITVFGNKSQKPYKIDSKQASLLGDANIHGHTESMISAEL
Text: as §1
(§5) Specifically, after dissociating each cell line and washing in PBS, the number of cells was counted and adjusted to 2×10⁵ cells/200 PBS. Then the respective ROR1 monoclonal antibodies prepared in Embodiment 3 were diluted 5 times from 10 /mL or 10 /mL, then reacted for 1 hour at 4° C. After the reaction, the cells were washed in PBS, then FITC-marked constant region (Fc) specific antibody (Goat anti-human IgG FITC conjugate, Fc specific, Sigma, F9512, concentration 20 mg/ml) was suspended in 2 /1×10⁵ cells/200 PBS and reacted for 1 hour at 4° C. As for identification of the degree of expression of the transiently over-expressed human ROR1, human ROR2 and mouse ROR1, a commercially available FACS analysis antibody (anti-ROR1: R&D Systems, FAB 2000G, anti-ROR2: R&D, FAB20641P) was used. After reacting the cells were washed in PBS and analyzed using a FACSCalibur device. The negative control (2nd Ab) was only treated with FITC-marked constant region (Fc) specific antibody. The shifted readings for the respective experimental groups treated with ROR1 monoclonal antibody were compared against the shifted reading for the control group (MFI Ratio: MFI of anti-ROR1/MFI of 2nd Ab).

[6] = target: T5, human ROR2 over-expressed on CHO cells (CHO-human ROR2) (human, UniProt Q01974 34-943); assay: flow cytometry on CHO-S cells transiently over-expressing human ROR2, FITC anti-human Fc detection, MFI ratio to 2nd Ab alone
T5 construct: whole, on cells; Negative control; also called family protein human ROR2
T5 sequence (Q01974 34-943): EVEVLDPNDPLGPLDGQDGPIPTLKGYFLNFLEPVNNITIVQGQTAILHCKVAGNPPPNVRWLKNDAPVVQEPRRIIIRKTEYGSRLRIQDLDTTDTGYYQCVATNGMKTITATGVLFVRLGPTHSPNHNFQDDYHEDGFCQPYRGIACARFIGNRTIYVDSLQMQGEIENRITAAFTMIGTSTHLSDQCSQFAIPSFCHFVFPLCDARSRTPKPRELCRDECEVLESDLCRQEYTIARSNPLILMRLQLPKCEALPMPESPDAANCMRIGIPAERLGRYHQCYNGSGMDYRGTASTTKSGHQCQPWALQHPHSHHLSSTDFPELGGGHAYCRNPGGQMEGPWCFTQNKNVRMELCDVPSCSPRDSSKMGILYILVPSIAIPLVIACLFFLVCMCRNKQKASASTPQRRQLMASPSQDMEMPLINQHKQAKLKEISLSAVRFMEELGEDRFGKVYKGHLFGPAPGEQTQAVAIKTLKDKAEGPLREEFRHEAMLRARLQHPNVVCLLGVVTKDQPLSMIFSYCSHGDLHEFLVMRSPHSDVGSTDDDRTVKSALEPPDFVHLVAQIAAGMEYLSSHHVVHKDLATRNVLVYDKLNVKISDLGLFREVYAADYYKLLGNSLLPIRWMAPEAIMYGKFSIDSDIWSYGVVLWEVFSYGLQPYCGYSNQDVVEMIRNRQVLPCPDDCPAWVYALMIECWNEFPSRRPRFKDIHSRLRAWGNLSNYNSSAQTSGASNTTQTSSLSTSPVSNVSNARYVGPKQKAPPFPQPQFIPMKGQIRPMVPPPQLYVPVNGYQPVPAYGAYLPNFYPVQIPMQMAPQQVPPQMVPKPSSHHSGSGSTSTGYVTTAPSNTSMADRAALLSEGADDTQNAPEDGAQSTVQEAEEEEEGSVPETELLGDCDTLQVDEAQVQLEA
Text: as §1, §5

[7] = target: T3, recombinant human ROR1-His (Sino …); assay: ELISA, wells coated with human ROR1 protein (sheet: 'human ROR1'; text: ROR1-Fc or ROR1-His), IgG titrated, OD(450nm-650nm); x axis 'conc(nM)' numbered -5 to 2 (log10)
Protocol: as §3, §4

[8] = target: T1, mouse ROR1 over-expressed on CHO cells …; assay: flow cytometry, CHO-mouse ROR1 cells
Text: as §1, §5

[9] = target: T5, human ROR2 over-expressed on CHO cells …; assay: flow cytometry, CHO-human ROR2 cells
Text: as §1, §2

T1 sequence (Q9Z139 30-937): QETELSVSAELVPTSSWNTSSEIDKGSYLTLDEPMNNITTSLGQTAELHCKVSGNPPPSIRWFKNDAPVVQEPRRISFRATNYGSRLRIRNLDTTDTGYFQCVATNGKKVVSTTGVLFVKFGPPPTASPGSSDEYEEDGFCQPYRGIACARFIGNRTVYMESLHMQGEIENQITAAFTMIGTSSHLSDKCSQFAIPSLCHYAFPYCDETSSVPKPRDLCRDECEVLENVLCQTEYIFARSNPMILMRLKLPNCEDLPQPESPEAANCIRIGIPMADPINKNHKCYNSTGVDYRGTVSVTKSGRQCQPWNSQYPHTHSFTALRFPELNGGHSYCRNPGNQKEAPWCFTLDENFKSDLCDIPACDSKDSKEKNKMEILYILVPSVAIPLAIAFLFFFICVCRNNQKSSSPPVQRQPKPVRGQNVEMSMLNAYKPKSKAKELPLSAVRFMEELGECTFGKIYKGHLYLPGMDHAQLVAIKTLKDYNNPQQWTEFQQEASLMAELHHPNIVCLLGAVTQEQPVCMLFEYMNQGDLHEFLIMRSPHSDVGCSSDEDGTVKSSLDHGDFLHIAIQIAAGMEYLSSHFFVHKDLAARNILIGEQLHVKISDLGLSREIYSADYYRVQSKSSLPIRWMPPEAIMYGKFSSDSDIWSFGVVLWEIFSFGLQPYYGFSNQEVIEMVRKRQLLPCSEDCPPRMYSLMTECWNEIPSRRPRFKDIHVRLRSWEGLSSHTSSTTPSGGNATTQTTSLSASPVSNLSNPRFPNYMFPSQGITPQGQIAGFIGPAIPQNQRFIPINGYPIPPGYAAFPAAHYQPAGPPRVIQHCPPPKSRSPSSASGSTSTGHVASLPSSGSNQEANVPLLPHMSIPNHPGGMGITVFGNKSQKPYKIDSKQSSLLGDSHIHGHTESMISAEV

binding result [1]: binds
binding result [2]: binds
Kd [3]: 0.0937 nM
koff [3]: 0.000231 s⁻¹
kon [3]: 2.47e+06 M⁻¹ s⁻¹
EC50 (read off the curve) [4]: ~0.2 nM
EC50 (read off the curve) [5]: ~0.1 µg/mL
binding result [6]: no binding
EC50 (read off the curve) [7]: ~0.05 nM
B1: anti-ROR1 IgG antibody BA6 (antibody, V domains shown)
VH: EVQLLESGGGLVQPGGSLRLSCAASGFTFSNYDMSWVRQAPGKGLEWVSAIYHSGSSKYYADSVKGRFTISRDNSKNTLYLQMNSLRAEDTAVYYCARGGNGAWDTGFDYWGQGTLVTVSS
VL: QSVLTQPPSASGTPGQRVTISCSGSSSNIGSNDVSWYQQLPGTAPKLLIYYDNNRPSGVPDRFSGSKSGTSASLAISGLRSEDEADYYCGAWDDSLSGYVFGGGTKLTVLG
notes: Full IgG form (human IgG1 constant region, lambda light chain), expressed in CHO-S cells

binding result [8]: binds
binding result [2]: binds
Kd [3]: 0.754 nM
koff [3]: 0.000551 s⁻¹
kon [3]: 731000 M⁻¹ s⁻¹
EC50 (read off the curve) [4]: ~0.3 nM
binding result [9]: no binding
B2: anti-ROR1 IgG antibody CC9 (antibody, V domains shown)
VH: EVQLLESGGGLVQPGGSLRLSCAASGFTFSSYDMSWVRQAPGKGLEWVSGISHGSGNKYYADSVKGRFTISRDNSKNTLYLQMNSLRAEDTAVYYCAKRLSLRRRPSYYSDNAMDVWGQGTLVTVSS
VL: B1 VL with S23T, S31N, D33A, S35N, N53S
notes: as for B1
